Test results reported in US20100172835A1 (BURNHAM INSTITUTE FOR MEDICAL RESEARCH, published 2010).
Bridges are numbered along the chain shown (N, C = ends). Where no end group is shown, it is not given here.

Experiments:
[1] = target: T1, gC1qR/p32 at the cell surface (human, UniProt Q07021 74-282); experiment: LyP-1 phage binding to Raji cells pre-incubated with 40 µg/ml mAb; ligand blocked: LyP-1 phage
T1 construct: whole, on cells; also called cell surface p32
T1 sequence (looked up): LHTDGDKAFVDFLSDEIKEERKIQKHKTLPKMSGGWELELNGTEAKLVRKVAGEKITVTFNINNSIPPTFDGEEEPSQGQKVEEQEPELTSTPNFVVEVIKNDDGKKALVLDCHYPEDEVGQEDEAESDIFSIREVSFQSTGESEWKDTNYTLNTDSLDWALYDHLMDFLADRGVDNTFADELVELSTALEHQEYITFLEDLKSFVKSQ

[2] = target: T2, purified gC1qR/p32 protein (human, UniProt Q07021 74-282); experiment: LyP-1 phage binding to wells coated with purified gC1qR/p32 with 20 µg/ml mAb; ligand blocked: LyP-1 phage
T2 construct: also called purified p32
T2 sequence (looked up): T1 sequence (looked up)

αv integrins = experiment: assay not described in the filing
[3] = target: T3, neuropilin-1 by forced expression on M21 cells (Homo sapiens (Human), UniProt O14786 22-923); experiment: cell-based or functional assay
T3 sequence (O14786 22-923 limits assumed, form in doubt): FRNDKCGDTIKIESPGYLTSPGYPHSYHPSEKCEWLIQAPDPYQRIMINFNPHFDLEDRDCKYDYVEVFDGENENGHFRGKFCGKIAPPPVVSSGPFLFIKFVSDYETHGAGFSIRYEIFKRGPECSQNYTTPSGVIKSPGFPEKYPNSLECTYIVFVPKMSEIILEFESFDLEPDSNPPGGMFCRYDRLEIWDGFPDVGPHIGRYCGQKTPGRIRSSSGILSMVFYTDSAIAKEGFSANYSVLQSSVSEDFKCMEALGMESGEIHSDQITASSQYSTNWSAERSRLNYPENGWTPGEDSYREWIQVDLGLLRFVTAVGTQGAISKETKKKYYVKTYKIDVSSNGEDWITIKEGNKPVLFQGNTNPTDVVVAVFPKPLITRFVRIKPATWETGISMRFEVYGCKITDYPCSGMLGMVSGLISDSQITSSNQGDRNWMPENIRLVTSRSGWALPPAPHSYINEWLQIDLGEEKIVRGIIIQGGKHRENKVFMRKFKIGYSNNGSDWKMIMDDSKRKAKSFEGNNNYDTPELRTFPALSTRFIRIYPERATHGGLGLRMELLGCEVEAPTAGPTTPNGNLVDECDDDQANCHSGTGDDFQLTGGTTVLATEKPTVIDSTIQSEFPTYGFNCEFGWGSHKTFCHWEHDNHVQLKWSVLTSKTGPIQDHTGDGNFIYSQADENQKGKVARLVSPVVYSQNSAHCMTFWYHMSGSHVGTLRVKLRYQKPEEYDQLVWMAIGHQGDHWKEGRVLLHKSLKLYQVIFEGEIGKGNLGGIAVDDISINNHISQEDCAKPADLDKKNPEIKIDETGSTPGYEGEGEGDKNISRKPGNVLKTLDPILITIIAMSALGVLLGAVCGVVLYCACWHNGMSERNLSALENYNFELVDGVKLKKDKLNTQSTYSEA

[4] = target: T3, neuropilin-1 by forced expression on …; experiment: CRGDK phage binding to M21 cells transfected with neuropilin-1 cDNA, against untransfected or vector-only cells
[5] = target: T2, purified gC1qR/p32 protein; experiment: phage binding to wells coated with purified gC1qR/p32, plaque assay
[6] = target: T1, gC1qR/p32 at the cell surface; experiment: phage binding to C8161 cells transiently transfected with gC1qR/p32 cDNA
Description: A. C8161 cells were transiently transfected with pEGFP together with either empty pcDNA3.1 vector or p32 pcDNA3.1 vector. Transfected cells were sorted for EGFP expression and the sorted populations were used for phage binding assay and immunoblot analysis with anti-p32. […] 48 hours after transfection, inhibition of p32 expression was checked by immunoblot analysis and immunostaining (upper panels). β-actin was used as a control. […] Cells incubated in the absence of peptide served as negative control. […] A representative experiment out of three is shown. C. […] Insertless phage was used to determine background phage binding.

[7] = target: T1, gC1qR/p32 at the cell surface; experiment: FACS of 10 µM FITC-LyP-1 on MDA-MB-435 S35 cells with p32 siRNA or control siRNA
Description: (§1) 48 hours after transfection, inhibition of p32 expression was checked by immunoblot analysis and immunostaining (upper panels). β-actin was used as a control. […] Cells incubated in the absence of peptide served as negative control. […] A representative experiment out of three is shown. C. […] Insertless phage was used to determine background phage binding.
(§2) MDA-MB-435 cells were transiently transfected with gC1qR/p32-specific or control siRNAs. […] The amount of fluorescence in living cells was analyzed by FACS. Cells incubated in the absence of peptide served as FITC negative control.

[8] = target: T4, gC1qR/p32 from tumor cell extracts (human, UniProt Q07021 74-282); experiment: pull-down from MDA-MB-435 extracts, anti-gC1qR/p32 immunoblot
T4 construct: mature; From xenograft extracts an additional 75 kD band was also identified as gC1qR/p32; also called gC1q/p32 receptor; p32/p33/gC1qR/HABP1
T4 sequence (looked up): T1 sequence (looked up)

[9] = target: T1, gC1qR/p32 at the cell surface; experiment: FACS of FITC-peptide on MDA-MB-435 cells transfected with p32 siRNA or control siRNA
Description: as §1, §2

## mouse monoclonal 60.11 anti-gC1qR/p32 antibody
[1]
  reduction of LyP-1 binding: 50%
[2]
  reduction of LyP-1 phage binding: 90%

B1: CRGDK fragment (peptide)
peptide: CRGDK
αv integrins
  fold reduction in affinity (against iRGD): 50 to 150 fold

B2: CRGDK phage (other)
chain: CRGDK
modifications: also: displayed on T7 phage capsid protein
notes: not shown: T7 phage capsid protein
[3]
  internalization of CRGDK phage into M21 cells: 3.5 fold
[4]
  fold increase in binding upon forced expression of neuropilin-1: 3.5 fold

B3: LyP-1 phage (other, not shown: large carriers)
chain: CGNKRTRGC
modifications: cysteine pairing not given here; also: displayed on phage coat protein
notes: Phage displaying the LyP-1 peptide; also called Lyp-1 expressing phage
[5]
  fold binding over insertless control phage: 60 fold
[6]
  fold binding over control phage: 5 fold

B4: FITC conjugated LyP-1 peptide (peptide)
peptide: CGNKRTRGC
modifications: disulfide 1-9 (inferred); also: FITC conjugated, position not given here
notes: Used at 10 uM on cells at 4 C; also called FITC-LyP-1
[7]
  binding result: binds

B5: biotinylated CREKA peptide (peptide)
peptide: CREKA
modifications: also: biotinylated, position not given here
notes: Negative control in the pull-down; also called control peptide
[8]
  binding result: no binding

B6: FITC conjugated control peptide ARALPSQRSR (peptide)
peptide: ARALPSQRSR
modifications: also: FITC conjugated, position not given here
[9]
  binding result: no binding (tested: 10 µM)

B7: biotinylated CRV peptide (peptide)
peptide: CRVRTRSGC
modifications: disulfide 1-9 (inferred); also: biotinylated, site not given here
notes: as for B5
[8]
  binding result: no binding
